In experiment [1] the target is T1, RNAPΔRpo4/7, ten-subunit RNAP subassembly lacking Rpo4/7 (M. jannaschii, UniProt Q58443 1-78).
T1 construct: RNA polymerase subunit Rpo1′, M. jannaschii; holds the clamp coiled-coil motif; RNA polymerase subunit Rpo2″, M. jannaschii; RNA polymerase subunit Rpo5, M. jannaschii; As m6 without the chains Rpo4 and Rpo7; source: recombinant subunits, reconstituted in vitro without Rpo4/7; copies: + + + + + + + + +
The experiment can be described thus: fluorescence polarisation; fluorescence anisotropy; RNAP added to labeled TFE^44*Cy3B (50 nM); apparent dissociation constant by direct fitting of the titration curves. Conditions: both partners purified.

Experiment [2] concerns the target T2, M. jannaschii RNA polymerase, wild type, reconstituted from 12 recombinant subunits (M. jannaschii, UniProt Q58443 1-78; Q57840 1-187).
T2 construct: RNA polymerase subunit Rpo1′, M. jannaschii; holds the clamp coiled-coil motif; RNA polymerase subunit Rpo2″, M. jannaschii; RNA polymerase subunit Rpo4 (stalk), M. jannaschii; RNA polymerase subunit Rpo5, M. jannaschii; RNA polymerase subunit Rpo7 (stalk), M. jannaschii; In PIC and TEC experiments the same RNAP stood with DNA, TBP and TFB, or with a DNA/RNA scaffold (see the assay's format); …
The description is as above. Conditions: both partners purified.

B1: TFE labeled with Cy3B at residue 44 (WH domain) (natural protein)
chain: MLNDPLVQEVLFNIFEGDEKGFEVIDVLLEKGETTEEEIAKELFVKLNVVRKLLYKLYDARLVDYKRWKDEDTNWYSYTWLPTLEKLPYVVKKKINELIKDLEKKLEFEKNNMFFFCPNCNVRFTFEEAMDYGFSCPGCGNMLQEFDNSELIKDLEEQIKFLKEELKNNPFLK
modifications: p-azido phenylalanine (APA) at position 44, derivatized with Cy3B
Regarding B1, the Kd came to 1700 ± 150 nM in experiment [1] and 200 ± 10 nM in experiment [2].

The record behind these values is publication PMC3223566, “The Initiation Factor TFE and the Elongation Factor Spt4/5 Compete for the RNAP Clamp during Transcription Initiation and Elongation” (Molecular Cell, 2011).
